According to publication PMC8235110, “Effective Tumor Targeting by EphA2-Agonist-Biotin-Streptavidin Conjugates” (Molecules, 2021):
“Also recorded” adds a separate entry of the source. Blank lines part the entries; values can stand above or below the molecule they belong to. Square brackets hold non-standard residues; d marks the D form. Peptide text beside a SMILES is read from it. * marks the point of attachment. 4‑CH3‑Tyr = 4-CH3-Tyr: 4-methyl-tyrosine, a non-natural residue; 2Benzofuroyl(3-Me,6,7-diOMe) = COc1ccc2c(C)c(C(=O)*)oc2c1OC; Phe(4-Cl) = N[C@@H](Cc1ccc(Cl)cc1)C(=O)O; Hyp = O=C(O)[C@@H]1C[C@@H](O)CN1

How the values were obtained:
[1] = target: T1, purified EphA2-LBD (Homo sapiens, UniProt P29317); experiment: reverse isothermal titration calorimetry (ITC); assay type: binding; conditions: reverse ITC titration with purified EphA2-LBD
T1 construct: made in house
T1 sequence (P29317 28-206 limits assumed): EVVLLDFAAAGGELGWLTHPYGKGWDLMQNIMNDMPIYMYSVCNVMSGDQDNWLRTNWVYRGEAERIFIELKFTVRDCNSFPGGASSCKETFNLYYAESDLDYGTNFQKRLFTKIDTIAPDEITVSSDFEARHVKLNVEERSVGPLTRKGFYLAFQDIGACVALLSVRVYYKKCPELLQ

[2] = target: T2, EphA2-LBD (6xHis-EphA2 ligand-binding domain) (Homo sapiens, UniProt P29317); experiment: DELFIA displacement of biotinylated EphA2-binding reference peptide; conditions: DELFIA dose-response; listed as scrambled version of 135H11
T2 construct: made in house
T2 sequence (P29317 28-206 limits assumed): as above

[3] = target: 6xHis-EphA2 ligand-binding domain; experiment: ITC; reverse ITC titration with purified EphA2-LBD
6xHis-EphA2 ligand-binding domain, sequence (P29317 whole entry, the tested form may be a part): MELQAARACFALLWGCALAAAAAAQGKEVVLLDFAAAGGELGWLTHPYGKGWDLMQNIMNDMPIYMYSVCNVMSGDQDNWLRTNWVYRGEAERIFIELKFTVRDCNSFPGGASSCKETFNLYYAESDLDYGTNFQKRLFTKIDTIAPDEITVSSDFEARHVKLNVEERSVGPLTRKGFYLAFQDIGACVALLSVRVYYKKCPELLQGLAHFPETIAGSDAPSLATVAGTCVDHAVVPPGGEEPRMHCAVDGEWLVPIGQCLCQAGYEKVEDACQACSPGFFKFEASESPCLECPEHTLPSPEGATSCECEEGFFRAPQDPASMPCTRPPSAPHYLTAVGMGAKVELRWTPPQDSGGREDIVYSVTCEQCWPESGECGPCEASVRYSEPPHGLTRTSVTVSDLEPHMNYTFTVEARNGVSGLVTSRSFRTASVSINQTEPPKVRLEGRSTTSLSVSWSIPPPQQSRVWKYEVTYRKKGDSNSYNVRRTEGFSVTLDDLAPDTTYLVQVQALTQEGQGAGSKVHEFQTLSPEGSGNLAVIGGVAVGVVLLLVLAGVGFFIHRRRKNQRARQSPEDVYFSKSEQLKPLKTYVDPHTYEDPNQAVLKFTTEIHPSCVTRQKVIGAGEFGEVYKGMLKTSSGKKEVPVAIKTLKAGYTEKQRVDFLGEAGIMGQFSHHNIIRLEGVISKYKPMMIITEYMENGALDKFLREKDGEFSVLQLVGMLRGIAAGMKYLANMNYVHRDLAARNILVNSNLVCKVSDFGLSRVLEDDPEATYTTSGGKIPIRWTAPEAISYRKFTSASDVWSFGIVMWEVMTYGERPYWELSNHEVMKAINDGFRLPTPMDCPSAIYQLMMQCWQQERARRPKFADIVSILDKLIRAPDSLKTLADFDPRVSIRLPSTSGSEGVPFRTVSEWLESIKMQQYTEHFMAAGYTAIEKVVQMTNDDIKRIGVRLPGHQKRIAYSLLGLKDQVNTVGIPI

[4] = tested on: EphA2 in MDA-MB-231 cells; experiment: EphA2 receptor degradation, Western blot, MDA-MB-231; assay type: cell-based, human; conditions: 1 h; 147B5 50 nM to 200 nM with streptavidin 50 nM (n = 1 to 4); scrambled 200 nM; 135H12 50 and 200 nM monomer concentration; ephrinA1-Fc 22 nM monomer (1 μg/mL); total EphA2, anti-EphA2 blot, relative to DMSO, duplicate
[5] = tested on: EphA2 in BxPC3 cells; experiment: EphA2 receptor degradation, Western blot, BxPC3; assay type: cell-based, human; conditions: 1 h; 147B5 50 nM to 200 nM with streptavidin 50 nM (n = 1 to 4); scrambled 200 nM; 135H12 50 and 200 nM monomer concentration; ephrinA1-Fc 22 nM monomer (1 μg/mL); total EphA2, anti-EphA2 blot, relative to DMSO, duplicate
Excerpt: (Table 1). […] In these cell-based assays, receptor activation and degradation could be simply monitored by detecting the ability of each agent to reduce EphA2 expression levels over time, after exposure of cells to test ligands. […] Negative controls were DMSO-treated cells or cells treated with the (scrambled 147B5)4-streptavidine complex (Figure 3).
For the control scrambled agent, we tested it at its maximal 4:1 molar ratio with streptavidin. For these experiments we treated cells with increasing concentrations of 147B5 (from 50 nM to 200 nM) in the absence or presence of streptavidin (50 nM). […]
Figure 4 Effect of 147B5 and its complexes with streptavidin at various ratios on EphA2 receptor degradation. […] (b) Densitometry analysis based on duplicate measurements of band intensities relative to the bands of DMSO-treated cells. * p ≤ 0.05, as determined by a one-way analysis of variance using Dunnett post-test analysis. […]
Cells were lysed with cell lysis buffer (20 mM Tris, pH 7.4, 120 mM NaCl, 1% Triton X-100, 0.5% sodium deoxycholate, 0.1% SDS, 1% IGEPAL, 5 mM EDTA), supplemented with EDTA-free Protease Inhibitor Cocktail and PhosStop (Sigma Aldrich) for 15 min on ice. […] Subsequently, Clarity Western ECL solution (BIO-RAD) was added to the blots prior to being imaged on a FluorChem (ProteinSimple) and analyzed with AlphaView software.

[6] = tested on: EphA2; conditions: cited from earlier work
[7] = target: 6xHis-EphA2 ligand-binding domain; experiment: DELFIA displacement assay; earlier-generation biotinylated EphA2-binding reference peptide captured on streptavidin-coated 96-well plates; 6xHis-EphA2-LBD and Europium-conjugated anti-6xHis antibody added together with the test agent at various doses; residual fluorescence read after washing

Kd (ITC) ([1]; N.B. = no binding detected by ITC): N.B. (ITC) | binding to EphA2-LBD by ITC (in words) ([1]; listed as 147B5 scrambled version): no appreciable binding was detected | binding to EphA2-LBD by ITC (in words) ([1]; listed as scrambled version of 147B5): no binding detected
Molecule: (3-CH3,6,7-OCH3,Benzofuranoic acid)DP(4-CH3-Tyr)A(Hyp)LRG(4-Cl-Phe)PVA-GK(Biotin LC)-CONH2 [Scrambled-147B5, scrambled 135H11-biotinylated (control)]

Molecule: COc1ccc(C[C@H](NC(=O)[C@@H]2CCCN2C(=O)[C@H](CC(=O)O)NC(=O)c2oc3c(OC)c(OC)ccc3c2C)C(=O)N[C@@H](C)C(=O)N2C[C@H](O)C[C@H]2C(=O)N[C@@H](CC(C)C)C(=O)N[C@@H](CCCNC(=N)N)C(=O)NCC(=O)N[C@@H](Cc2ccc(Cl)cc2)C(=O)N2CCC[C@H]2C(=O)N[C@H](C(=O)N[C@@H](C)C(N)=O)C(C)C)cc1 [Scrambled-135H11] ({2Benzofuroyl(3-Me,6,7-diOMe)}-DPY(Me)A[Hyp]LRG[Phe(4-Cl)]PVA-NH2)
inhibition in DELFIA (in words) [2]: no inhibition

Kd [3]: 117 nM
B1: 147B5 (135H11-biotinylated) (peptide)
peptide: LAYPDAVPFRPGK
modifications: N-terminal 3-CH3,6,7-OCH3,Benzofuranoic acid; 4-CH3-Tyr at position 3; Hyp (trans 4-hydroxy-L-proline) at position 8; 4-Cl-Phe at position 9; K(Biotin LC) at position 13 (LC: long 6 atom hydrocarbon chain between the biotin and the amide bond); C-terminal amide (-CONH2)

B2: ephrinA1-Fc: dimeric ephrinA1-Fc chimera, positive control (protein)
chain: DRHTVFWNSSNPKFRNEDYTIHVQLNDYVDIICPHYEDHSVADAAMEQYILYLVEHEEYQLCQPQSKDQVRWQCNRPSAKHGPEKLSEKFQRFTPFTLGKEFKEGHSYYYISKPIHQHEDRCLRLKVTVSGKITHSPQAHDNPQEKRLAADDPEVRVLHSIGHS
modifications: left off: Fc, end not stated, kept
notes: dimeric ephrinA1-Fc chimera, positive control
EphA2 receptor degradation in MDA-MB-231 cells (in words) [4]: significant degradation of the EphA2 receptor; also recorded: very effective in causing EphA2 degradation | EphA2 receptor degradation in BxPC3 cells (in words) [5]: nearly complete degradation of the EphA2 receptor | receptor degradation, agonistic effectiveness in cells (in words) ([6]; at nanomolar concentrations, ref [5],[28],[29],[30],[31],[34]): dramatically more effective as an agonist | EphA2 dimer formation, activation, internalization, degradation (in words) ([6]; legend of schematic, no reference given): can efficiently induce dimer formation and receptor activation, internalization, and degradation

IC50 [7]: > 10000 nM
B3: Scrambled-135H11 (peptide)
peptide: {2Benzofuroyl(3-Me,6,7-diOMe)}-DP[4‑CH3‑Tyr]A[Hyp]LRG[Phe(4-Cl)]PVA-NH2
